In patent US20260042850A1 (LOCKBODY THERAPEUTICS, published 2026):

B1: 07C10 (antibody, IgG4, V domains shown)
VH: QVQLVQSGAEVKKPGASVKVSCKASGYIFTAYSMHWVRQAPGQGLEWMGIIKPSNGSTNYAQKFQGRVTMTRDTSTSTVYMELSSLRSEDTAVYYCARAEITTEFDYWGQGTLVTVSS
VL: EIVLTQSPGTLSLSPGERATLSCRASQSVESYAQSYLHWYQQKPGQAPRLLIYRGSTRESGIPDRFSGSGSGTDFTLTISRLEPEDFAVYYCQQSKEEPLTFGGGTKVEIK
B2: 08B12 (antibody, IgG4, V domains shown)
VH: QVQLVQSGAEVKKPGASVKVSCKASGYIFTAYSMHWVRQAPGQGLEWMGWIKPNNGSTNYAQKFQGRVTMTRDTSTSTVYMELSSLRSEDTAVYYCARTEITTEFDYWGQGTLVTVSS
VL: EIVLTQSPGTLSLSPGERATLSCRASQSVDSYANSYLHWYQQKPGQAPRLLIYRGSTRETGIPDRFSGSGSGTDFTLTISRLEPEDFAVYYCQQSKSDPLTFGGGTKVEIK
B3: 09B08 (antibody, IgG4, V domains shown)
VH: QVQLVQSGAEVKKPGASVKVSCKASGYTFTSYTMHWVRQAPGQGLEWMGWINPNNGSTNYAQKFQGRVTMTRDTSTSTVYMELSSLRSEDTAVYYCARSEITTDFDYWGQGTLVTVSS
VL: EIVLTQSPGTLSLSPGERATLSCRASQSVSSYANSYLHWYQQKPGQAPRLLIYRGSTRESGIPDRFSGSGSGTDFTLTISRLEPEDFAVYYCQQSKSDPLTFGGGTKVEIK
B4: MH1 (antibody, IgG4, V domains shown)
VH: QVQLVQSGAEVKKPGASVKVSCKASGYTFTSYTMHWVRQAPGQGLEWMGWINPNGGSTSYAQKFQGRVTMTRDTSTSTVYMELSSLRSEDTAVYYCARQEITTEFDYWGQGTLVTVSS
VL: EIVLTQSPGTLSLSPGERATLSCRASQSVSSYANSYLHWYQQKPGQAPRLLIYRGSTRESGIPDRFSGSGSGTDFTLTISRLEPEDFAVYYCQQSKSEPLTFGGGTKVEIK
B5: MH2 (antibody, IgG4, V domains shown)
VH: QVQLVQSGAEVKKPGASVKVSCKASGYTFTSYTMHWVRQAPGQGLEWMGWINPNGGSTSYAQKFQGRVTMTRDTSTSTVYMELSSLRSEDTAVYYCARQEITTEFDYWGQGTLVTVSS
VL: EIVLTQSPGTLSLSPGERATLSCRASQSVSSYAQSYLHWYQQKPGQAPRLLIYRGSTRETGIPDRFSGSGSGTDFTLTISRLEPEDFAVYYCQQSGSSPLTFGGGTKVEIK
B6: MH3 (antibody, IgG4, V domains shown)
VH: QVQLVQSGAEVKKPGASVKVSCKASGYTFTSYTMHWVRQAPGQGLEWMGWINPNGGSTSYAQKFQGRVTMTRDTSTSTVYMELSSLRSEDTAVYYCARQEITTEFDYWGQGTLVTVSS
VL: EIVLTQSPGTLSLSPGERATLSCRASQSVSSYAQSYLHWYQQKPGQAPRLLIYRGSTRETGIPDRFSGSGSGTDFTLTISRLEPEDFAVYYCQQYGSSPLTFGGGTKVEIK
notes: also called MH03
B7: MH5 (antibody, IgG4, V domains shown)
VH: QVQLVQSGAEVKKPGASVKVSCKASGYTFTSYTMHWVRQAPGQGLEWMGWINPSGGSTSYAQKFQGRVTMTRDTSTSTVYMELSSLRSEDTAVYYCARQEITTEFDYWGQGTLVTVSS
VL: EIVLTQSPGTLSLSPGERATLSCRASQSVSSYAQSYLHWYQQKPGQAPRLLIYRGSTRETGIPDRFSGSGSGTDFTLTISRLEPEDFAVYYCQQSGSSPLTFGGGTKVEIK
B8: MH6 (antibody, IgG4, V domains shown)
VH: QVQLVQSGAEVKKPGASVKVSCKASGYTFTSYTMHWVRQAPGQGLEWMGWINPSGGSTSYAQKFQGRVTMTRDTSTSTVYMELSSLRSEDTAVYYCARQEITTEFDYWGQGTLVTVSS
VL: EIVLTQSPGTLSLSPGERATLSCRASQSVSSYAQSYLHWYQQKPGQAPRLLIYRGSTRETGIPDRFSGSGSGTDFTLTISRLEPEDFAVYYCQQYGSSPLTFGGGTKVEIK
B9: MH11 (antibody, IgG4, V domains shown)
VH: QVQLVQSGAEVKKPGASVKVSCKASGYTFTSYAMHWVRQAPGQGLEWMGWINPSGGSTSYAQKFQGRVTMTRDTSTSTVYMELSSLRSEDTAVYYCARQEITTEFDYWGQGTLVTVSS
VL: EIVLTQSPGTLSLSPGERATLSCRASQSVSSYAQSYLHWYQQKPGQAPRLLIYRGSTRETGIPDRFSGSGSGTDFTLTISRLEPEDFAVYYCQQSGSSPLTFGGGTKVEIK
B10: Grafted clone (Graft), IGHV1-46/IGKV3-20 CDR graft of 224G11 (antibody, human IgG4, V domains shown)
VH: QVQLVQSGAEVKKPGASVKVSCKASGYIFTAYTMHWVRQAPGQGLEWMGWIKPNNGLANYAQKFQGRVTMTRDTSTSTVYMELSSLRSEDTAVYYCARSEITTEFDYWGQGTLVTVSS
VL: EIVLTQSPGTLSLSPGERATLSCRASQSVDSYANSFLHWYQQKPGQAPRLLIYRASTRESGIPDRFSGSGSGTDFTLTISRLEPEDFAVYYCQQSKEDPLTFGGGTKVEIK
notes: also called VH graft/VL graft

Legend:
[1] = target: T1, human C-MET on stably transfected CHO-K1 cells (human, UniProt P08581 25-1390); assay: flow cytometry, C-MET CHO-K1 cells
T1 construct: also called hucMET; human C-MET+ CHO-K1 cells
T1 sequence (P08581 25-1390 limits assumed): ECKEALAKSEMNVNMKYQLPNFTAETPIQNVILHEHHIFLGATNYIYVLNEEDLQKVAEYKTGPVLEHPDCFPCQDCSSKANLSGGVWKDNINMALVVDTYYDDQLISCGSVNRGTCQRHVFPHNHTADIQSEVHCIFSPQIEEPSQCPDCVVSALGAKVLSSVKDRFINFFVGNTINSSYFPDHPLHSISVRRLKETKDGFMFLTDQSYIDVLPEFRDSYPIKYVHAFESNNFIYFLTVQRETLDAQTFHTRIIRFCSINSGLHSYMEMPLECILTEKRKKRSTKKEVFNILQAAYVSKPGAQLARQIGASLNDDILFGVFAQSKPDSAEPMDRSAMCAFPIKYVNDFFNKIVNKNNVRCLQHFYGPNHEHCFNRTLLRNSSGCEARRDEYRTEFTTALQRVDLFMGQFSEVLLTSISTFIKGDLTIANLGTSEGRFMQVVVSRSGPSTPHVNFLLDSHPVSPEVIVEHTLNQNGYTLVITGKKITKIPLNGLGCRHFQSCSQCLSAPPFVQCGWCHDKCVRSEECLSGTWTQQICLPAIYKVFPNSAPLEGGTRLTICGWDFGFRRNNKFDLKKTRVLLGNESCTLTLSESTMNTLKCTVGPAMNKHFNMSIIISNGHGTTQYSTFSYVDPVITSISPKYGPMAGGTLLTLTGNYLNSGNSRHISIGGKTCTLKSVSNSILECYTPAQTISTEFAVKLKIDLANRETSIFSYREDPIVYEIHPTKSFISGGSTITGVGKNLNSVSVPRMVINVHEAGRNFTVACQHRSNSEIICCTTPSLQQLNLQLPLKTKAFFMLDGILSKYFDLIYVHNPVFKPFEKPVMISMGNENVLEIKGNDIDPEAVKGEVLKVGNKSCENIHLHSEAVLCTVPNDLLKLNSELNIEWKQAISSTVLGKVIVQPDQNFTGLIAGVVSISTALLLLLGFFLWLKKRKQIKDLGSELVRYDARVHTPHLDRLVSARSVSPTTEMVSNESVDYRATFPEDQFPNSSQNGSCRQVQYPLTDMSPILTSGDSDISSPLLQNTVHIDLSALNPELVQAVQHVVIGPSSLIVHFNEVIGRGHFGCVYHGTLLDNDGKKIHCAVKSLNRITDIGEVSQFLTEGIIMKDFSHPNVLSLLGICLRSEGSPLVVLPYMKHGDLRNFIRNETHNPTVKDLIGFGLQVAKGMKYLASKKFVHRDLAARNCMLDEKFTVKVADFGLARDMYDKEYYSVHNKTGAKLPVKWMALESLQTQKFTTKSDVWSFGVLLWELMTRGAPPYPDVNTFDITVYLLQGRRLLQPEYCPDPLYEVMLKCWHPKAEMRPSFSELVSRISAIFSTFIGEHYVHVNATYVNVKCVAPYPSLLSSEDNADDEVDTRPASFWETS
Method: (§1) Purified IgGs were tested in FACs for binding to human and cyno C-MET expressed on CHO-K1 stable cell lines and CHO-K1 wild-type cells. The IgG samples were titrated in three-fold serial dilutions starting at 500 nM to 0.08 nM. Binding of IgGs was detected with a mouse anti-human IgG conjugated to FITC. Results were analyzed by examining the Mean Fluorescence Intensity (MFI) of 10000 cells per sample in the BL-1 channel detector of a flow cytometer (Attune™ NxT Acoustic Focusing Cytometer, Invitrogen/ThermoFisher Scientific).
(§2) Antibodies to C-MET were analysed for concentration-dependent binding at the cell surface via flow cytometry. CHO-K1 cells were stably transfected with either human or cyno C-MET full-length cDNAs. Anti-C-MET IgGs and an isotype control IgG4(S228P) were then all tested in IgG4(S228P) format, over a concentration range of 500-0.08 nM for binding to human (FIG. 5A) and cyno (FIG. 5B) CHO-K1 cells.

[2] = target: T2, cynomolgus monkey C-MET on stably transfected CHO-K1 cells (cynomolgus monkey, UniProt A0M8R7 25-1381 (Papio anubis entry)); assay: flow cytometry, C-MET CHO-K1 cells
T2 construct: also called cycMET; cyno C-MET+ CHO-K1 cells
T2 sequence (A0M8R7 25-1381 S170N/I621T limits assumed): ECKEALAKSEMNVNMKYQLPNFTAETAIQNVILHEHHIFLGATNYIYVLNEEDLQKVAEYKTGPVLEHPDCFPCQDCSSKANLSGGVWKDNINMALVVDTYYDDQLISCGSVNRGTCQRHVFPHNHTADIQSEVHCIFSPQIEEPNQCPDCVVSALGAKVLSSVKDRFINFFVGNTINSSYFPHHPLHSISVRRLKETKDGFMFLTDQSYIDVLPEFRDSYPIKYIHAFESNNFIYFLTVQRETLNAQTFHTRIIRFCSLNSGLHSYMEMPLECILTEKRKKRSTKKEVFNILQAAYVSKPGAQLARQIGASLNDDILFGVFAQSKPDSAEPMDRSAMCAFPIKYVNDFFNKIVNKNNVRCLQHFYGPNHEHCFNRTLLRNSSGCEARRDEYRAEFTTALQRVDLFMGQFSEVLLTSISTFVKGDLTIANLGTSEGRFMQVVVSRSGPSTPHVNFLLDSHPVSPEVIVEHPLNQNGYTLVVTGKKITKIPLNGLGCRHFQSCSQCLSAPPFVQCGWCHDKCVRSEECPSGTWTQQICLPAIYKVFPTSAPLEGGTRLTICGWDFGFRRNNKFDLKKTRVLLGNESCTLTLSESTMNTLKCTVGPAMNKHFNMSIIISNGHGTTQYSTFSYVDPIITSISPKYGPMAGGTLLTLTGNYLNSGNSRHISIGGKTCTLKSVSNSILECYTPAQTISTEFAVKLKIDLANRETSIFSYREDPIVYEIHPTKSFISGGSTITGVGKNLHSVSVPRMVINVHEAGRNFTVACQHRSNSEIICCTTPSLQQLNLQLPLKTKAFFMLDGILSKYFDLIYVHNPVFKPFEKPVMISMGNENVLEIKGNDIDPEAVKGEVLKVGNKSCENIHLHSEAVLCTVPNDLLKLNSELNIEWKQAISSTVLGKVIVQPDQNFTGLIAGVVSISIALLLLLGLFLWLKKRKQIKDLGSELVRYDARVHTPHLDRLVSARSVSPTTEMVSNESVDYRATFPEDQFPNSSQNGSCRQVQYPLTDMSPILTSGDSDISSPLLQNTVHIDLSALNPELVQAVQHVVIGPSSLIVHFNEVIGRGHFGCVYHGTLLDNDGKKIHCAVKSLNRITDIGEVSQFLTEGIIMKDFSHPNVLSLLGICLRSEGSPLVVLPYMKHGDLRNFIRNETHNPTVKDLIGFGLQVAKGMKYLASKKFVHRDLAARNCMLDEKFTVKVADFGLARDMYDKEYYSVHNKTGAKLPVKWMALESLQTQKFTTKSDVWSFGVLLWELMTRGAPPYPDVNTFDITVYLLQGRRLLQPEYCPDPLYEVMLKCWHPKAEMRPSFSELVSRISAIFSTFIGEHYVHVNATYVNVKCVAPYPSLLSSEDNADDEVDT
Method: as §1, §2

[3] = target: T3, cynomolgus monkey C-MET His tag, monomeric (cynomolgus monkey, UniProt A0M8R7 25-932 (Papio anubis entry)); assay: SPR Biacore, IgG captured, monomeric C-MET-His analyte
T3 construct: also called monomeric cyno C-MET; cyCMET
T3 sequence (A0M8R7 25-932 S170N/I621T): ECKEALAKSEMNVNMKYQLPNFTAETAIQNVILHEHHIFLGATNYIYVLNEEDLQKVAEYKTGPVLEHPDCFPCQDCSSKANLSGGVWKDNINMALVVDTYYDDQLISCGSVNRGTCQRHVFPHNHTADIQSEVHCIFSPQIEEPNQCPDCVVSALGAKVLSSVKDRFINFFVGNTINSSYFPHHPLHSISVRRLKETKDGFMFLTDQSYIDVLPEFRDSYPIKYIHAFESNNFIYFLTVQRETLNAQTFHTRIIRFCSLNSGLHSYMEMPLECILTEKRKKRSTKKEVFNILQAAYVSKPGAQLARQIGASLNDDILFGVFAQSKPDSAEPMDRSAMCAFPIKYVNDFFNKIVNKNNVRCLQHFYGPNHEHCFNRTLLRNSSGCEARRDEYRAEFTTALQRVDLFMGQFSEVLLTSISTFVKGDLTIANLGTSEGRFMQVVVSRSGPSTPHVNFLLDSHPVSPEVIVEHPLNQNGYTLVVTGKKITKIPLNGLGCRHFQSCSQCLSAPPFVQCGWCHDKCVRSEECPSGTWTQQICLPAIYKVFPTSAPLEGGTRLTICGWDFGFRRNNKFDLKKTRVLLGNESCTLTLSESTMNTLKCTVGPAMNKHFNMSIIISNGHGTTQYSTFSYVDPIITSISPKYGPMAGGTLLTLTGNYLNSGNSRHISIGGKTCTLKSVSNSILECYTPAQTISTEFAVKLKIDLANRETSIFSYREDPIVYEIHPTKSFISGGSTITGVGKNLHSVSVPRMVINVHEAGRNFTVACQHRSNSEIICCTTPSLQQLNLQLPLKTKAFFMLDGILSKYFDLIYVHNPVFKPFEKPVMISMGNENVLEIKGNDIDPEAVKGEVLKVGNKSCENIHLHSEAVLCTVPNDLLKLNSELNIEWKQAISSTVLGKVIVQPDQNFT
Method: (§3) Affinity (KD) of purified IgGs was determined via SPR with antigen in-solution on a Biacore® 3000 (GE). A mouse anti-human antibody (CH1 specific) was immobilized on a CM5 Sensor Chip to a level of 2000 RU in acetate buffer at pH 4.5 using amine coupling following the Wizard instructions for two channels. One channel was used for background signal correction. The standard running buffer HBS-EP pH 7.4 was used. Regeneration was performed with a single injection of 10 μl of 10 mM Glycine at pH 1.5 at 20 μl/minute. IgG samples were injected for 2 minutes at 50 nM at 30 μl/min followed by and off-rate of 60 seconds. The monomeric antigen (human C-MET His tagged or cynomolgus monkey C-MET His tag) was injected in two fold serial dilutions from 100 nM down to 6 nM, for 2 minutes at 30 μl/min followed by an off-rate of 300 seconds. The obtained sensorgrams were analysed using the Biacore® 3000 evaluation (BIAevaluation) software. The KD was calculated by simultaneous fitting of the association and dissociation phases to a 1:1 Langmuir binding model.

[4] = target: T4, human C-MET His tagged, monomeric (human, UniProt P08581 25-932); assay: as above
T4 construct: also called monomeric human C-MET; biotinylated human C-MET-His
T4 sequence (P08581 25-932): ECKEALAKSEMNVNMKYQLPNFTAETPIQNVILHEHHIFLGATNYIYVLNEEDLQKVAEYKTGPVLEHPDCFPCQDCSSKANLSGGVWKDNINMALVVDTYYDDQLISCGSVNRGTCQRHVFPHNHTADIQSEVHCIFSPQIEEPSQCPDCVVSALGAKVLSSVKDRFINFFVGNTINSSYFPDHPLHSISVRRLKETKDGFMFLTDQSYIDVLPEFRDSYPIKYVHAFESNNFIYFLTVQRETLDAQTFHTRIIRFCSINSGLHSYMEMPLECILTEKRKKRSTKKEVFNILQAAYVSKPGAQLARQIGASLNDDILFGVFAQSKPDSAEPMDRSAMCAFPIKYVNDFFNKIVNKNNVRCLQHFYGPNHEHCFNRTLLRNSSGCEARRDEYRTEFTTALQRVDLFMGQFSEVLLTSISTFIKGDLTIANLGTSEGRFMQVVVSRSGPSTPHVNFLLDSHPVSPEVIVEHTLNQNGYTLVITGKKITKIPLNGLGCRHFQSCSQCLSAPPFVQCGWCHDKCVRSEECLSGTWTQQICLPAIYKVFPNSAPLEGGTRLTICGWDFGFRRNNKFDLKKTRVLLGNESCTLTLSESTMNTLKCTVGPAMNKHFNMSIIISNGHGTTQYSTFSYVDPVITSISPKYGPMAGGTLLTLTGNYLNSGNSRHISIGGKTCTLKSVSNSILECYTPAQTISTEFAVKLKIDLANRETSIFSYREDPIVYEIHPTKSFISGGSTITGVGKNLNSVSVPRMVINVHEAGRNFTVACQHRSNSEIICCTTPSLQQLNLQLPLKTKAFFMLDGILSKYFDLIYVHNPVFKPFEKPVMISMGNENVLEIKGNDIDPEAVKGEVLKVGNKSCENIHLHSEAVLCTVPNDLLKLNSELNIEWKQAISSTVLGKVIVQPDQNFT
Method: as §3

[5] = target: T1, human C-MET on stably transfected …; assay: flow cytometry, C-MET CHO-K1 cells; remark: listed apart in the source
Method: as §1

[6] = target: T2, cynomolgus monkey C-MET on stably …; assay: flow cytometry, C-MET CHO-K1 cells; remark: listed apart in the source
Method: as §1

Row | Binder | maximum MFI, fold over Isotype IgG4 background [1] | maximum MFI, fold over Isotype IgG4 background [2] | Kd [3] | koff [3] | kon [3] | Kd [4] | koff [4] | kon [4] | EC50 [5] | EC50 [6]
1 | B1 | > 10 fold | > 10 fold | 3.2 nM | 0.00021 s⁻¹ | 65000 M⁻¹ s⁻¹ | 0.78 nM | 9.4e-05 s⁻¹ | 120000 M⁻¹ s⁻¹ | 9.59 nM | 2.82 nM
2 | B2 | > 10 fold | > 10 fold | 8.1 nM | 0.00043 s⁻¹ | 54000 M⁻¹ s⁻¹ | 8.4 nM | 0.00031 s⁻¹ | 37000 M⁻¹ s⁻¹ | 11.7 nM | 1.34 nM
3 | B3 | > 10 fold | > 10 fold | 0.2 nM | 1.2e-05 s⁻¹ | 60000 M⁻¹ s⁻¹ | 1.1 nM | 4.1e-05 s⁻¹ | 37000 M⁻¹ s⁻¹ | 9.3 nM | 3.78 nM
4 | B4 | > 10 fold | > 10 fold | 0.14 nM | 2.6e-05 s⁻¹ | 180000 M⁻¹ s⁻¹ | 0.75 nM | 7.11e-05 s⁻¹ | 94700 M⁻¹ s⁻¹ | 2.02 nM | 0.26 nM
5 | B5 | > 10 fold | > 10 fold | 0.87 nM | 0.00021 s⁻¹ | 240000 M⁻¹ s⁻¹ | 2.5 nM | 0.00018 s⁻¹ | 73000 M⁻¹ s⁻¹ | 1.59 nM | 0.34 nM
6 | B6 | > 10 fold | > 10 fold | 4.1 nM | 0.00062 s⁻¹ | 150000 M⁻¹ s⁻¹ | 7.6 nM | 0.00051 s⁻¹ | 68000 M⁻¹ s⁻¹ | 1.66 nM | 0.27 nM
7 | B7 | > 10 fold | > 10 fold | 1.3 nM | 0.00021 s⁻¹ | 170000 M⁻¹ s⁻¹ | 2 nM | 0.00015 s⁻¹ | 77000 M⁻¹ s⁻¹ | 1.76 nM | 0.3 nM
8 | B8 | > 10 fold | > 10 fold | 4 nM | 0.00063 s⁻¹ | 160000 M⁻¹ s⁻¹ | 8.2 nM | 0.00053 s⁻¹ | 65000 M⁻¹ s⁻¹ | 1.33 nM | 0.72 nM
9 | B9 | > 10 fold | > 10 fold | 1.2 nM | 0.00018 s⁻¹ | 150000 M⁻¹ s⁻¹ | 2.6 nM | 0.00016 s⁻¹ | 62000 M⁻¹ s⁻¹ | 1.68 nM | 0.69 nM
10 | B10 | > 10 fold | > 10 fold | 0.22 nM | 5.2e-05 s⁻¹ | 230000 M⁻¹ s⁻¹ | 0.37 nM | 3.7e-05 s⁻¹ | 99000 M⁻¹ s⁻¹ | – | –
